This note sets out measurements from doi:10.1101/298208 (bioRxiv, 2018).

For orientation: stoichiometry N means the number of molecules, sites or subunits per partner or assembly.

The data set concerns the molecule itself. The data set is described as follows: native gel or EMSA. Background: Mobility shift assays separate free from complexed probe on a gel.

B1: scavenger receptor class BI (SR-BI) (receptor)
chain: MGGSSRARWVALGLGALGLLFAALGVVMILMVPSLIKQQVLKNVRIDPSSLSFGMWKEIPVPFYLSVYFFEVVNPNEVLNGQKPVVRERGPYVYREFRQKVNITFNDNDTVSFVENRSLHFQPDKSHGSESDYIVLPNILVLGGSILMESKPVSLKLMMTLALVTMGQRAFMNRTVGEILWGYDDPFVHFLNTYLPDMLPIKGKFGLFVGMNNSNSGVFTVFTGVQNFSRIHLVDKWNGLSKIDYWHSEQCNMINGTSGQMWAPFMTPESSLEFFSPEACRSMKLTYNESRVFEGIPTYRFTAPDTLFANGSVYPPNEGFCPCRESGIQNVSTCRFGAPLFLSHPHFYNADPVLSEAVLGLNPNPKEHSLFLDIHPVTGIPMNCSVKMQLSLYIKSVKGIGQTGKIEPVVLPLLWFEQSGAMGGKPLSTFYTQLVLMPQVLHYAQYVLLGLGGLLLLVPIICQLRSQEKCFLFWSGSKKGSQDKEAIQAYSESLMSPAAKGTVLQEAKL
Turning to B1, the “stoichiometry N” value stood at 2.
